Results published in publication PMC6753478 (Nucleic Acids Research, 2019).

Target: T1, FLAG-UPF1 (UniProt Q92900-2 1-1118)
T1 sequence (looked up): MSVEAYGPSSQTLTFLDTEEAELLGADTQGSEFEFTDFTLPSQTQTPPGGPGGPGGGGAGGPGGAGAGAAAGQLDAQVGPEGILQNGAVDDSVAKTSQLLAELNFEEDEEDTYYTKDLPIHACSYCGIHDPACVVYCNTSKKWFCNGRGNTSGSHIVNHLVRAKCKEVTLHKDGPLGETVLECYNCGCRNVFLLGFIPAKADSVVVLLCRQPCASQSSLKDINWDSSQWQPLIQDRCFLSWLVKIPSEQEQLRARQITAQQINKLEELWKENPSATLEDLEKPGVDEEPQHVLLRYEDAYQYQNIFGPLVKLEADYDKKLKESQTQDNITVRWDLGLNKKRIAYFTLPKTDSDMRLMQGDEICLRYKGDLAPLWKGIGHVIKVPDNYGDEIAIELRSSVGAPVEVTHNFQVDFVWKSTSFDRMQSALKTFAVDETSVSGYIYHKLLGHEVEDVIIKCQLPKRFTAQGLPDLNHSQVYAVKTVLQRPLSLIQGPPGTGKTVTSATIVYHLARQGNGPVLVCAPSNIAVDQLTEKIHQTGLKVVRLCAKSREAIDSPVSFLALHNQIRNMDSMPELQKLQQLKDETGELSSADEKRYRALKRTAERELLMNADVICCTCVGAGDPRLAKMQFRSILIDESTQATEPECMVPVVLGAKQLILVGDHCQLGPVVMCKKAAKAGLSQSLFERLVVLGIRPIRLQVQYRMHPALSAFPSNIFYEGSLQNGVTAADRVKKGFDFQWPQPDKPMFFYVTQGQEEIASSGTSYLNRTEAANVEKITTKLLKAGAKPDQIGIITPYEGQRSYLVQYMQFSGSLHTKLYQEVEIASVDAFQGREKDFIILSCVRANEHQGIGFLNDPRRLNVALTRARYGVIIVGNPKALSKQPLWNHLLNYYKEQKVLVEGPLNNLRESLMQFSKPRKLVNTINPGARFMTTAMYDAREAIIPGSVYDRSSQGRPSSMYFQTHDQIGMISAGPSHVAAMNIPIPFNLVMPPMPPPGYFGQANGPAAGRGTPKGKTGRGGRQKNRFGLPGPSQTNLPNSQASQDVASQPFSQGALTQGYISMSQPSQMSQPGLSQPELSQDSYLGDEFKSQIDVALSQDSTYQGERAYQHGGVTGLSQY
Test: co-IP

B1: staufen1 (STAU1), endogenous (natural protein, human (endogenous in HEK293T), UniProt O95793 1-577, looked up)
chain: MSQVQVQVQNPSAALSGSQILNKNQSLLSQPLMSIPSTTSSLPSENAGRPIQNSALPSASITSTSAAAESITPTVELNALCMKLGKKPMYKPVDPYSRMQSTYNYNMRGGAYPPRYFYPFPVPPLLYQVELSVGGQQFNGKGKTRQAAKHDAAAKALRILQNEPLPERLEVNGRESEEENLNKSEISQVFEIALKRNLPVNFEVARESGPPHMKNFVTKVSVGEFVGEGEGKSKKISKKNAAIAVLEELKKLPPLPAVERVKPRIKKKTKPIVKPQTSPEYGQGINPISRLAQIQQAKKEKEPEYTLLTERGLPRRREFVMQVKVGNHTAEGTGTNKKVAKRNAAENMLEILGFKVPQAQPTKPALKSEEKTPIKKPGDGRKVTFFEPGSGDENGTSNKEDEFRMPYLSHQQLPAGILPMVPEVAQAVGVSQGHHTKDFTRAAPNPAKATVTAMIARELLYGGTSPTAETILKNNISSGHVPHGPLTRPSEQLDYLSRVQGFQVEYKDFPKNNKNEFVSLINCSSQPPLISHGIGKDVESCHDMAALNILKLLSELDQQSTEMPRTGNGPMSVCGRC
- fold change of the association after IR exposure, against untreated cells: 3.1 fold
